Assay results as given in the supplement of paper PMC7125110.
± gives the standard error. Variants at the floor of the assay were thinned out.

B1: glmS ribozyme (parent)
chain: AUAAAAGCGCCAGAACUACAGAAAUGUAGUUGACGAGGAGGAGGUUUAUCGAAUUUUCGGCGGAUGCCUCCAAA

How the values were obtained:
Conditions in all cases: with glucosamine-6-phosphate
glucosamine-6-phosphate [1] = variants of: B1; test: self-cleavage kobs at 40 uM GlcN6P; higher = faster cleavage; RNA array
Summary of the method: (§1)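 Weighted Michaelis–Menten fits across concentrations supplied kcat and KM, based on kobs from one- or two-exponential decay fits to normalised per-tile medians. The data came from barcoded ribozyme variants transcribed in situ by E. coli RNA polymerase on sequenced MiSeq chips and tracked at 37 °C by a hybridised Cy3 probe. Glucosamine-6-phosphate (40 μM to 10 mM) in HEPES/KCl/Mg(OAc)2 buffer was flowed in.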

glucosamine-6-phosphate [2] = variants of: B1; test: self-cleavage kobs at 160 uM GlcN6P; higher = faster cleavage; RNA array
Summary of the method: as §1

glucosamine-6-phosphate [3] = variants of: B1; test: self-cleavage kobs at 640 uM GlcN6P; higher = faster cleavage; RNA array
Summary of the method: as §1

glucosamine-6-phosphate [4] = variants of: B1; test: self-cleavage kobs at 10000 uM GlcN6P; higher = faster cleavage; RNA array
Summary of the method: as §1

glucosamine-6-phosphate [5] = variants of: B1; test: self-cleavage kobs at 2500 uM GlcN6P; higher = faster cleavage; RNA array
Summary of the method: as §1

Row | Variant | self-cleavage kobs at 40 uM GlcN6P (glucosamine-6-phosphate [1]) [s⁻¹] | self-cleavage kobs at 160 uM GlcN6P (glucosamine-6-phosphate [2]) [s⁻¹] | self-cleavage kobs at 640 uM GlcN6P (glucosamine-6-phosphate [3]) [s⁻¹] | self-cleavage kobs at 10000 uM GlcN6P (glucosamine-6-phosphate [4]) [s⁻¹] | self-cleavage kobs at 2500 uM GlcN6P (glucosamine-6-phosphate [5]) [s⁻¹]
1 | AUAAAAGCGCCAGAACUACAGAAAUGUAGUUGACGAGGCGGAGGUUUAUCGAAUUUUCGCCGGAUGCUUCCAAA [A39C G60C C68U] | < 1e-05 | < 1e-05 | < 1e-05 |  | 
2 | AUAAAAGCGCCAGAACUACAGAAAUGUAGUUGACGAGGCGGAGGUUUUUCGAAUUUUCUGCGGAUGCCUCCAAA [A39C A48U G59U] | < 1e-05 |  |  | < 1e-05 | 
3 | AUAAAAGCGCCAGAACUACAGAAAUGUAGUUGACGAGGGGGAGGUUUAUCGAAUUUUCGGCGUAUACCUCCAAA [A39G G63U G66A] | < 1e-05 |  | < 1e-05 | < 1e-05 | < 1e-05
4 | AUAAAAGCGCCAGAACUACAGAAAUGUAGUUGACGAGGUGGGGGUUUAUCGAAUUUUCGGCGGAUGUCUCCAAA [A39U A42G C67U] | 0.000231 ± 6.2e-05 | 0.000536 ± 0.00015 |  | 0.0241 ± 0.0085 | 0.00297 ± 0.00075
5 | AUAAAAGCGCCAGAACUACAGAAAUGUAGUUGACGAGGGGGAGGUUUAUGGAAUUUUAGGCGGAUGCCUCCAAA [A39G C50G C58A] | 0.000142 ± 4.6e-05 |  |  |  | 
6 | AUAAAAGCGCCAGAACUACAGAAAUGUAGUUGACGAGGCGAAGGUUUAUCGAAUUUUCGGCGGAUGCCUCCAAA [A39C G41A] | < 1e-05 | < 1e-05 | < 1e-05 | < 1e-05 | 
7 | AUAAAAGCGCCAGAACUACAGAAAUGUAGUUGACGAGGGGGAGGUUUAUUGAAUUUUUGGCGGAUGCCUCCAAA [A39G C50U C58U] | < 1e-05 |  |  |  | 
8 | AUAAAAGCGCCAGAACUACAGAAAUGUAGUUGACGAGGCGGGGGUUUAUCGAAUUUUCGGCGGCUGGCUCCAAA [A39C A42G A64C C67G] | < 1e-05 |  |  | < 1e-05 | 
9 | AUAAAAGCGCCAGAACUACAGAAAUGUAGUUGACGAGUAGGAGGGUUAUCGAAUUUUCGGCGGAUGCCUCCAAA [G38U U45G] | < 1e-05 |  | < 1e-05 |  | 
10 | AUAAAAGCGCCAGAACUACAGAAAUGUAGUUGACGAGGCGGAGGUUUAUCGAAUUUUCGGCGGAUGCCGCCAAA [A39C U69G] | < 1e-05 |  | < 1e-05 | < 1e-05 | 
11 | AUAAAAGCGCCAGAACUACAGAAAUGUAGUUGACGAGGCGGAGGUUUAUCGAAUUUUCCGCGGAUGCCUCCAAA [A39C G59C] | < 1e-05 | < 1e-05 | < 1e-05 | < 1e-05 | < 1e-05
12 | AUAAAAGCGCCAGAACUACAGAAAUGUAGUUGACGAGUAGGAGGUUUAUCGAAGUUUCGGCGGAUGCCUCCAAA [G38U U54G] | < 1e-05 |  |  |  | 
13 | AUAAAAGCGCCAGAACUACAGAAAUGUAGUUGACGAGGUGGAGGAUUAUCGAAUUUUCGGCGGAUGCCUCCAAA [A39U U45A] | 0.000759 ± 9.8e-05 | 0.00209 ± 0.00053 | 0.0067 ± 0.0015 | 0.0807 ± 0.02 | 0.0135 ± 0.0033
14 | AUAAAAGCGCCAGAACUACAGAAAUGUAGUUGACGAGGCGGAGGUUUAUAGAAUUUUCGGCGGAUGCCUCCAAA [A39C C50A] | < 1e-05 | < 1e-05 | < 1e-05 | < 1e-05 | 
15 | AUAAAAGCGCCAGAACUACAGAAAUGUAGUUGACGAGGUGGAGGUUUAUCGAAGUUUUGGCGGAUGCCUCCAAA [A39U U54G C58U] | < 1e-05 |  |  |  | 
16 | AUAAAAGCGCCAGAACUACAGAAAUGUAGUUGACGAGGUGGCGGUUUAUCGAACUUUCGGCGGACGCCUCCAAA [A39U A42C U54C U65C] | < 1e-05 |  | < 1e-05 |  | < 1e-05
17 | AUAAAAGCGCCAGAACUACAGAAAUGUAGUUGACGAGGGGGAGGUUUAUCGAAUUGUCGGCGGAUGCCUCCAAA [A39G U56G] | 0.00055 ± 0.00012 |  |  | 0.0224 ± 0.0047 | 
18 | AUAAAAGCGCCAGAACUACAGAAAUGUAGUUGACGAGGCGGAGGUUUAUCGAAUUUUCGGCGGAGGCCUGCAAA [A39C U65G C70G] | < 1e-05 | < 1e-05 | < 1e-05 | < 1e-05 | 
19 | AUAAAAGCGCCAGAACUACAGAAAUGUAGUUGACGAGGCGGAGGUUUAACGAAUUUUCGGCGGAUGCCUCCAAA [A39C U49A] | < 1e-05 | < 1e-05 |  | < 1e-05 | 
20 | AUAAAAGCGCCAGAACUACAGAAAUGUAGUUGACGAGUAGGAGGUUUAUCGAAUUUUCGGCGGAUACCGCCAAA [G38U G66A U69G] | 4.77e-05 ± 2e-05 |  |  | 4.02e-05 ± 1.6e-05 | 
21 | AUAAAAGCGCCAGAACUACAGAAAUGUAGUUGACGAGGCGGAGGUUUAUCGAAUUUUCGGCAGAUGCCUCCAAA [A39C G62A] | < 1e-05 |  | < 1e-05 | < 1e-05 | 
22 | AUAAAAGCGCCAGAACUACAGAAAUGUAGUUGACGAGGGGGAGGGUUGUCGAAUUUUCGGCGGAUGCCUCCAAA [A39G U45G A48G] | < 1e-05 |  |  | 6.43e-05 ± 1.9e-05 | 
23 | AUAAAAGCGCCAGAACUACAGAAAUGUAGUUGACGAGGCGGAGGUUUAUCGAAUUUUCGGAGGAUGCCUCCAAA [A39C C61A] | < 1e-05 | < 1e-05 | < 1e-05 | < 1e-05 | < 1e-05
24 | AUAAAAGCGCCAGAACUACAGAAAUGUAGUUGACGAGGGGGAGGUUUAUCGAAUUUUCGGCGGAUGCUUCCAAA [A39G C68U] | 0.000529 ± 5e-05 | 0.000783 ± 0.00025 | 0.00223 ± 0.0005 | 0.0156 ± 0.003 | 0.00387 ± 0.0012
25 | AUAAAAGCGCCAGAACUACAGAAAUGUAGUUGACGAGGCGGAGGUUUAUCGAAUUUUCGGCGGAUGCGUCCAAA [A39C C68G] | < 1e-05 |  |  | < 1e-05 | 
26 | AUAAAAGCGCCAGAACUACAGAAAUGUAGUUGACGAGGUGGAGGUUUAUCGAAUUUUCGGCGGAUGCUUCUAAA [A39U C68U C71U] | 0.000103 ± 3e-05 |  |  |  | 
